For assay [1], the target named is T1, Talin F3 L325R (mouse, UniProt P26039 309-405, limits assumed).
T1 construct: domain: F3 sub-domain; As m1, with the mutation
In words: ITC, peptide injected into talin F3 L325R, 23 C, 200 mM Tris, 300 mM NaCl, pH 7.5. Here is the method:
(§1) Peptide concentrations were typically at 150 to 300 μM while protein concentrations ranged from 25 to 50 μM. For the W359A mutant, the protein concentration was 50 μM and the peptide concentration was 1 mM. Prior to ITC titrations, the peptides and proteins were in buffer consisting of 200 mM Tris, 300 mM NaCl, pH 7.5. All experiments were conducted at 23 degrees Celsius. […] The bottom panel is the binding curve, calculated using the software program Origin.
(§2) Isothermal titration calorimetry (ITC) was performed on a VP-ITC calorimeter (Microcal, Northampton, Mass.). Aliquots (8 μL) of wildtype ([…]p[…]) (SEQ ID NO: 2) or mutant chimeric peptide were injected into the cell containing wildtype or mutant talin F3 domain. Peptide concentrations were typically 150 to 300 μM while protein concentrations ranged from 25 to 50 μM. For the W359A mutant, the protein concentration was 50 μM and the peptide concentration was 1 mM. Prior to ITC titrations, the peptides and proteins were in 200 mM Tris, 300 mM NaCl, pH 7.5. In each experiment 37 injections were made. The experiments were performed at 23° C. All titrations were performed at least twice and with different protein preparations. Experimental data were analyzed using Microcal Origin software.
Background: ITC needs no label: the signal is the heat of the interaction.

In assay [2] the target is T2, Talin F3 W359A (mouse, UniProt P26039 309-405, limits assumed).
T2 construct: domain: F3 sub-domain; As m1, with the mutation; also called talin (W359A) mutant
T2 sequence (P26039 309-405 W359A limits assumed): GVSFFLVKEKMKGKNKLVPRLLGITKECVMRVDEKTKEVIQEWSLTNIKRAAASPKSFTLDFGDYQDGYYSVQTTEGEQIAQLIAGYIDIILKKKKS
Description: ITC, 1 mM peptide injected into 50 µM talin F3 W359A, 23 C, 200 mM Tris, 300 mM NaCl, pH 7.5. Here is the method: as §1, §2

Assay [3] has as its target T3, Talin F3 sub-domain, wild type (mouse, UniProt P26039 309-405, limits assumed).
T3 construct: domain: F3 sub-domain; U-15N labelled for NMR; also called Talin F3 wt; talin F3 domain
In words: ITC, peptide injected into talin F3, 23 C, 200 mM Tris, 300 mM NaCl, pH 7.5. As to the method:
as §1, §2

For assay [4], the target named is T4, Talin F3 Q381V (mouse, UniProt P26039 309-405, limits assumed).
T4 construct: domain: F3 sub-domain; As m1, with the mutation
T4 sequence (P26039 309-405 Q381V limits assumed): as the sequence (P26039 309-405 W359A limits assumed) above, with A51W, Q73V counted along it
In words: ITC, peptide injected into talin F3 Q381V, 23 C, 200 mM Tris, 300 mM NaCl, pH 7.5. Here is the method:
as §1, §2

The target of assay [5] is T2, Talin F3 W359A. Description: ITC. Here is the method:
as §1, §2

The source of these data is patent publication US20100210525A1 (University of California, published 2010).

Non-standard residues stand in square brackets, D forms with d. No end group written: not given here. pY = N[C@@H](Cc1ccc(OP(=O)(O)O)cc1)C(=O)O

Usually Kd stands for the free concentration of one partner at which half of the binding sites on the other are occupied at equilibrium, for simple one-to-one binding. Read a low Kd as a tighter complex.

T3 sequence (P26039 309-405 limits assumed): as the sequence (P26039 309-405 W359A limits assumed) above, with A51W counted along it
T1 sequence (P26039 309-405 L325R limits assumed): as the sequence (P26039 309-405 W359A limits assumed) above, with L17R, A51W counted along it

B1: β3/PIPKIγ chimeric peptide, wild type (peptide)
peptide: KKLLITIHDRKEFAKFEEERARAKWV[pY]SPLHYSAR
notes: Integrin β3 tail residues N-terminal of W739, PIPKIγ residues C-terminal of it (numbered 740-746 in the deposited structure); also called β3 chimera; β3-integrin/PIPKIγ peptide
As for B1, the Kd was determined as 212 nM in assay [1], 106000 nM in assay [2], 140 nM in assay [3] and 135 nM in assay [4]. Also, in assay [5], the “fold reduction of affinity against wild-type talin F3” value is about 1000 fold.

The molecule KKLLITIHDRKEAAKFEEERARAKWV[pY]SPLHYSAR (also called β3 chimera F727A; β3-F727A) [β3/PIPKIγ chimeric peptide F727A] registered a Kd in assay [3] of 118 nM.

In assay [3], KKLLITIHDRKEFAKAEEERARAKWV[pY]SPLHYSAR (also called β3 chimera F730A; β3-F730A) [β3/PIPKIγ chimeric peptide F730A] showed a Kd of 105 nM.
